Residue numbers refer to the chain shown, from its start.
T1: rhesus monkey CRTh2 (rhesus monkey, UniProt Q9Y5Y4 1-395 (human entry))
T1 construct: also called rhesus CRTh2
T1 chain: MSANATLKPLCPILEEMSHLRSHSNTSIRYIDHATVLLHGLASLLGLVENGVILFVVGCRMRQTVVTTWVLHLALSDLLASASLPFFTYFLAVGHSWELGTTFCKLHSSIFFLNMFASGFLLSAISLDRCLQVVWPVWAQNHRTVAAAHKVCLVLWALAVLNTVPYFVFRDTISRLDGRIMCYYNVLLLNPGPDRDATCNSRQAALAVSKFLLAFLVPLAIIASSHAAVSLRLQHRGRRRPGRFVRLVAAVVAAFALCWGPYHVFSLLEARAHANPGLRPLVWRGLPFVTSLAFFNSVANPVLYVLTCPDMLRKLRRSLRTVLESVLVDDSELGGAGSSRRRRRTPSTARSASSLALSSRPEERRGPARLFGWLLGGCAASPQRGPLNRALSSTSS

T2: cynomolgus monkey CRTh2 (cynomolgus monkey, UniProt Q9Y5Y4 1-395 (human entry))
T2 construct: also called cyno CRTh2; cynomologous CRTh2
T2 chain: T1 chain with P193S, P276R, R360H

B1: mouse anti-human CRTh2 monoclonal antibody 19A2 (antibody, mouse IgG2a, V domains shown)
VH: EVKLVESGGGLVQPGGSLKLSCAASGFTFSSYSMSWVRQTPEKRLEWVAYISNGGSTTYYPGTVEGRFTISRDNAKNTLFLQMSSLRSKDTAMYYCARHRTNWDFDYWGQGTTLTVSS
VL: DIQMTQSPASLSVSVGETVTITCRASENIYSNLAWYQQKQGKSPQLVVYAATQLADGVPSRFSGSGSGTQYSLKINSLQSEDFGSYYCQHFWITPWTFGGGTKLEIK
notes: also called mu19A2; Mu19A2
B2: mouse anti-human CRTh2 monoclonal antibody 8B1 (antibody, V domains shown)
VH: QVQLQQSGTGLVRPGTSVRVSCKASGYAFITYLIEWIKQRPGQGLEWIGVIHPGSGNSHYNEKFKGKATLTADTSSSTAYMQLSSLTSGDSAVYFCARSGSSSFDYYAMDFWGQGTSVTVSS
VL: DIQMTQSPSSLSASLGERVSLTCRASQEISGYFSWLQQKPDGTIKRLIYAASTLDSGVPKRFSGSRSGSDYSLTISSLESEDFADYYCLQYANYPYTFGGGTKLEIK
notes: also called mu8B1; Mab 8B1

What was measured:
rhesus monkey CRTh2 [1] = target: T1, rhesus monkey CRTh2; test: flow cytometry on 293 cells expressing rhesus CRTh2
cynomolgus monkey CRTh2 = target: T2, cynomolgus monkey CRTh2; test: flow cytometry on 300.19 cells expressing amino-terminal Flag-tagged cynomolgus CRTh2 [Cont.]
rhesus monkey CRTh2 [2] = target: T1, rhesus monkey CRTh2; test: flow cytometry on 300.19 cells expressing amino-terminal Flag-tagged rhesus CRTh2

Binder	binding result (rhesus monkey CRTh2 [1])	binding result (cynomolgus monkey CRTh2)	binding result (rhesus monkey CRTh2 [2])
B1	no binding (tested: 20 ug/ml)		
B2		no binding (tested: 1 ug/ml)	no binding (tested: 5 ug/ml)

From patent US20140328849A1 (Genentech, published 2014)
